The results in this text go back to patent US20170073408A1 (Amgen, published 2017).

One experiment addresses T1, A/B82-107.
T1 activin A/B chimeric subunit: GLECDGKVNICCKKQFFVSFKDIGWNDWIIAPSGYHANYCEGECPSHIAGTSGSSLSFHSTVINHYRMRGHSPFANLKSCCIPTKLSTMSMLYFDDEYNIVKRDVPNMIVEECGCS
In words: Biacore blocking: 100 nM antibody + diluted conditioned medium (CM) of the ligand over ActRIB-Fc surface.

A further experiment addresses T2, A/B13-39.
T2 construct: also called Activin A 13/39 B
T2 activin A/B chimeric subunit: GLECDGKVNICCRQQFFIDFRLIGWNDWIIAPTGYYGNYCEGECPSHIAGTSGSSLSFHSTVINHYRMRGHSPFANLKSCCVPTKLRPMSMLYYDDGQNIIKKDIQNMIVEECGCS
The experiment is described as above.

Experiment [1] concerns the target T3, recombinant human activin A (mature) (human, UniProt P08476 311-426).
T3 construct: also called r-HuActivin A; rhActivin A
T3 sequence: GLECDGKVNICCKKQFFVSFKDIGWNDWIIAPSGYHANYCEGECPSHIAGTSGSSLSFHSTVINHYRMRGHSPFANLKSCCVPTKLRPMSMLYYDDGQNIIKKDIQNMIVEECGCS
Description: Biacore premix competition: 2 nM rhActivinA + 20 nM antibody over immobilized AKA1. Background: In SPR one partner is held on a chip, and binding of the other changes the refractive index at the surface.

B1: A8 (antibody, V domains shown)
VH: QVQLQESGPGLVKPSETLSLTCTVSGGSINSFYWSWIRQPPGKGLEWIGYIYYSGSTNYNPSLKRRVTISVDTSKTQFSLKLSSVTAADTAVYYCARDSIAAPFDYWGQGTLVTVSS
VL: DIVMTQSPDSLAVSLGERATITCKSSQSILYSSNNKKYLVWYQQKPGQPPKLIIYWTSMRESGVPDRFSGSGSGTDFTLTISSLQAEDVAVYYCQQYYSTPWTFGQGTKVEIK
notes: also called antibody A8; L8H8
Consider B1, for which the binding result (with A/B82-107; with A/B13-39; in experiment [1]) was “binds” in each case.

B2: A5 (antibody, V domains shown)
VH: QVQLQESGPGLVKPSETLSLTCTVSGGSINSFYWSWIRQPPGKGLEWIGYIYYSGSTNYNPSLKSRVTISVDTSKTQFSLKLSSVTAADTAVYYCARDSIAAPFDYWGQGTLVTVSS
VL: DIVMTQSPDSLAVSLGERATITCKSSQSILYSSNNKKYLVWYQQKPGQPPKLIIYWTSMRESGVPDRFSGSGSGTDFTLTINSLQAEDVAVYYCQQYYSTPWTFGQGTKVEIK
notes: also called antibody A5; L5H5
On to B2, for which the binding result (with A/B82-107; with A/B13-39; in experiment [1]) was “binds” in each case.

B3: A13 (antibody, V domains shown)
VH: QVQLVQSGAEVKKPGASVKVSCKASGYTFTSYGISWVRQAPGQGLERMGWISAYNGNTNYAQKFQGRVTMTTDTSTTTAYMELRSLRSDDTAVYYCARDQDYYDSSGWGHWGQGTLVTVSS
VL: SYELTQPPSVSVSPGQTASITCSGDKLGDKYVCWYQQKPGQSPELVIYLDNKRPSGIPERFSGSNSGNTATLTISGTQAMDEADYYCQAWDSSTVFGGGTKLTVL
notes: also called antibody A13; L13H13
As for B3, the binding result (with A/B82-107; with A/B13-39; in experiment [1]) was “binds” in each case.

B4: A14 (antibody, V domains shown)
VH: QVQLVQSGAEVKKPGASVKVSCKTSGYTFTSYGISWVRQAPGQGLEWMGWISPYNGNTNYAQKFQGRVTMTTDKSTSTAYMELRSLRSDDTAVYYCARDQDYYDSSGWDPWGQGTLVTVSS
VL: SYELTQPPSVSVSPGQTASITCSGDKLGDKYAFWYQQKPGQSPVLVFYHDTKRPSGIPERFSGSNSGNTATLTISGTQAMDEADYHCQAWDSSTVFGGGTKLTVL
notes: also called antibody A14; L14H14
For B4, the binding result in the experiment with A/B82-107 is on record as “binds”; with A/B13-39, “no binding (tested: 100 nM)”; in experiment [1], “binds”.

B5: A7 (antibody, V domains shown)
VH: QVQLVDSGGGVVQPGRSLRLSCAASGFTFISYGMHWVRQAPGKGLEWVAVIWYDGSTEYYADSVKGRFTISRDNSKNTLYLQMNSLRAEDTAVYYCARERQWLYHYGMDVWGQGTTVTVSS
VL: DIQMTQSPSSLSASVGDRVTITCRAGQGIRNDLVWYQQKPGKAPKRLIYAASSLQSGVPSRFSGSGSGTEFTLTISSLQPEDFATYYCLQHNTYPFTFGPGTKVDIK
notes: also called antibody A7; L7H7
Turning to B5, the binding result was “no binding (tested: 100 nM)” with A/B82-107, “binds” with A/B13-39 and “binds” in experiment [1].

B6: A9 (antibody, V domains shown)
VH: QVQLVESGGGVVQPGRSLRLSCAASGFTFSSYGMHWVRQAPGKGLEWVAVIWYDGSNKYHADSVKGRFTISRDNSKNTLYLQVNSLRAEDTAVYYCVRSRNWNYDNYYYGLDVWGQGTTVTVSS
VL: DIQMTQSPSSLSASVGDRVTITCRASQGIRNNLGWYQQKPGKAPKRLIYAASSLQSGVPSRFSGSGSGTEFTLTISSLQPEDFTTYYCLQHNSYPWTFGQGTKVEIK
notes: also called antibody A9; L9H9
Turning to B6, the binding result is listed as “no binding (tested: 100 nM)” with A/B82-107 and “binds” with A/B13-39.

B7: A6 (antibody, V domains shown)
VH: QVQLQQWGAGLLKPSETLSLTCAVYGGSFSAYYWSWIRQPPGKGLEWIGEINHSGGTNYNPSLKSRVTISVDTSKNQFSLKLSSVTAADTAVYYCARVQWLELAYFDYWGQGTLVTVSS
VL: DIQMTQSPSSLSASVGDRVTITCRASQSISNYLNWYQQRPGKAPKLLIYATSSLQSGVPSRFSGSGSGTDFTLTISSLQPEDFVSYYCQQSYSISPTFGGGTKVENK
notes: also called antibody A6; L6H6
With B7, the binding result (with A/B82-107; with A/B13-39; in experiment [1]) was “binds” throughout.
